Laboratory results taken from the DeepSol protein solubility set.

experiment: soluble on expression in E. coli; label from the status in PepcDB or PDB records

Soluble on expression in E. coli, not soluble:
MGSDKIHHHHHHMIVYNSGAALEKARVRVGLVGTGYAAKFRAEALLHDERSQLIAVVGHTAEKTEAFVREYQIKALSSWQELVEREDVDLVVICTVNRDHGAIARAALTNGKHVIIEYPLSLDVVEADELIALAKAQKKLLHVEHLELLGGLHQALKQNLAKIGEVFYARYSTINPQNPAPRKWTYNHELFGFPLIGALSRLHRLIDLFGTVFTVNCHQRYWEIEPEYYQTCFCTSELCFNSGLLAQVVYGKGESIWQSERKFEVHGEKGGLVFDGDTGIFIQPEETTPIEVGPRRGLFAKDTAMVLDHLFDGTPLYVTPEQSLYTLKVADAAQRAAQTGFTMFM
MSLTAIKHVAISCRRALTKCAKIGHTTVSVSRSLRKLSPTAFKTLRQAIAKVGHLNIMGQKIRLNDRELAANKVIMAVKKEEISKGILDPSQFTPGQHIFKTLAEVQKSPIFNLIKGMPKGGALHAHDTALCSTDYLISLTYRKNLWICTAEEGCKAIAFRFSKEEPKEKPVKESIWEPMEEFRERRGEENVTKYLTRRFSMYPFSKFISNNQAWAHFMGIFILLDGLLCHAPIWAEYYYNALKEFAEDGVQYLELRSLLPPLYCIDGDMLTIRDTVAIYNSELERFRADHPDFIGSKLIYAPLRGVEPSVVEQYVKTAVELNKEFPNFMVGFDLVGQEELGRPLIDFVEPLLKMPEHINFYFHAGETNWFGSPIDENLVDAILLGTKRIGHGYALTKHPMMMRLAKLLGIAIEVCPVSNQVLQLGVDYRNHPAALLLAANVPIVISSDDPSFWHCAPLSHDFYFAFLGIAPMKADLRFLKSLAINSIRYSALVGEEKRVGYRKWQEKWDKWIDDVVEHKYCEGHHHHHH
MGSDKIHHHHHHMRNEYFFRVAGLTFSVILPGGLDAETLLPSFRPFRCGECPEGERIFRLLADTRPFADDGKRAELLDESSNDMGHVCLLRIPGGYRTEISYGPMDGGAHLMTVDTAFDDATAFLRVEDPSMGEVLSSMLRILYAQAALGRDAVSVHASCVSLKGRGYLFLGKSGTGKSTHSRQWLEAFPDCRLLNDDNPVLRIEDGMVSVYGTPWSGKTPCYRNERRPVAGIVRLQQSGTNRFTPLEGPEAFAALLPSCSAIRQDIRLHDELCRILIRVTEQVPVGRLECLPDREAAWLCFESLYVRDAKAREVRDGLPENGGL
MGSDKIHHHHHHMNYLVYQSYGSKDILNECCYSILSLLKHGINKNETRIVIYTDQPEYFSFLPAATLEFVQMSADIIADYKGVHAFVHRLKIKILQDAVTRFQGTILYVDSDIYFLKSIEPLFASISKTNLLMCNNEGRIHTGGNRIFEKFSAFIKKNTDYLKQHHIPIPYDITMWNAGVIGFLSTEKELLEKVLYTNDTIYNKFQSHVVEQLSFSYQLQKQGTLNAATDYLYHYWNFKEFRIVLAEFFKYHLNRGSVEQMIQDIDSIRPDVLIKPKLEYETLPFLKKNIRKLGGKKNRWKFPAYTIGQAATI
MYVYDEYDQRIVEDRVKQFRDQTRRYLAGELTGEEFRPLRLQNGLYIQRYAPMLRIAVPYGLLSSRQLRKLAQIARDYDKGYAHISTRQNVQFNWPELEDVPEILAELATVQMHAIQTSGNCIRNTTTDQFAGVARDELVDPRPWCEIIRQWSTFHPEFAHLPRKFKIAVNGAVSDRAAIEVHDIGLEAVKNEAGELGFRVSVGGGLGRTPIVGSFINEFLPWQHLLGYLDAILRVYNRYGRRDNKYKARIKILVKALTPEVFAERVEAEWANLKDGPSTLTEAEVQRVAAHFVDPAYKALDDLDESLARLDAEHPGFARWRARNTFAHKKPGYVAVTLSLKPTGTAPGDVTDKQLEAIADLADRYSFGEVRNSHNQNIILADVEQGELFALWGELRELGFATPNVGLLTDIICCPGGDFCSLANAKSIPIAEAIQRRFDNLDYLFDIGDIDLNISGCMNACGHHHVGHIGILGVDKKGAEFYQVSLGGSSARDASLGQILGPSFAQEQMADVIDKIIQVYVERRTEEEPFIDTFRRIGIDPFKERVYAAN
MGSDKIHHHHHHMKIDDMDAFVAVIRCQSTNLAAEALQLTQPAITRRVQNFEEDLGATLLDRNTKPLKPTPMGLRVYEQCKAILREIDSLRELVANDGAPSGTLRLGVPQTLGDVVLLDALAQIREAYPQLRTQVTSGWGSSLIARMENGELDAAAALFPPGKIFPEGIASQSIARMPLRVVTAKGSAGKRSYKLKDCYTRGWVLNPDGCGFRAGLQRALSEQGLSLSINLETFGTELQLGLVANGQGLGLVPEPLLQTSRHRSALDVLNISDFKPQVDLWLFHPRYLGNLQEPVELFGEVAGHRLLG
MGSDKIHHHHHHMLPSAPCSGWSHHTLKPLGAGTRGTGYIMPVTNMIHLDNRDHADRQSHGQPAHVLMLEQSPGVVPKSLLGKGLTYLREQWPKLIRYVENGSWPISNNPCENAIRLFCVGRRGWLFSDTVDGANACANLYTLVETSKTNGIDLYRYLAWLFRRLPLAKTVDDYDALLPWRMPVDIHVDPFDKERSTIDHEQENHSAGSLSA
MQLRGEVTPHIGRHAFAVLAILKGMLLETLQKVFGHKSITYVLRIHSLVRRRRSNLFLEVAHLYDQRADQLSQLLIRACFNNCQFHTKILFKILNMRQSNAHPISFPNR
MQYPINEMFQTLQGEGYFTGVPAIFIRLQGCPVGCAWCDTKHTWDKLSDREVSLFSILAKTKESDKWGAASSEDLLAVINRQGYTARHVVITGGEPCIHDLMPLTDLLEKSGFSCQIETSGTHEVRCTPNTWVTVSPKVNMRGGYDVLSQALERANEIKHPVGRVRDIEALDELLATLSDDKPRVIALQPISQKEDATRLCIETCIARNWRLSMQTHKYLNIA
MGSDKIHHHHHHMPEFRKDPIIKRWVIIATERAKRPHDFARTKVEEVREGFCPFDYGNEHTTPPEIFAFRPADTEPNTPGWWVRVVPNKFPAVDPNAPLRKYGRGMYDAAMGFGYHDVVVETPDHNSHLAVMDYKNVEEVIWAYKIRYEQLMKDERIKYILIFKNHGRDAGASLSHPHSQIIALPIMPKRVQEELDGSKEYYEYKERCPFCDIIDEEKRERERIVEENDHFIALEPFAARFPFETWILPKRHMNSFHLISEDEVGSLAKILKNVLYRIYAALDNPPYNLLIHTAPTSLEGKDYYHWHIEIFPRLTKVAGFEWGTGFYINTVPPEDAARYLREVSLEQV
MAHHHHHHMALTLSPVEAALATCVALRYFYAHALHLSAATRVAHSVGPAPHDLSDRFTANLPFEDYLQWGLESIYSDASSAEAHLCLEQLSSNLRDAIMTHANNMEFRFLDEAPSLFDTVLLTSLYLVRSRVLRMPLLSSTSNKPDSNCSVFGPGLDALNHCSTSPAAVVVVSAARRSVVVRARRRINRGEEITLDYRLTGSGRGVSRGHPSHNGSLLRGDVICMNDDWAARYLMN

Soluble on expression in E. coli, soluble:
MASSGDYDEIIKSISDAPPTHYMVKIESFSLLTKHAIERYETESFEAGGYKWKLVLYPNGNKSKNTKDHVSVYLSLADSSSLSPGWEVYAVFRLYLLDQNKDNYLILQGNERRFHSVKREWGFDKFIPTGTFSDASNGYLMEDTCMFGADVFVSKERRSGRGECLSMIKDATSSKHVWKIENFSKLDKESYDSNAFFAGDRKWKIEFYPTGTKQGTGTHLSIYLTLVDPETISDGTKIFVEFTIRIFDQLQGRHIAGKVTKWFSRSSSEHGWVKYVSMVYFTQPNSGLLLKDVCLVEADVCVHGITSAI
MAYFMTDVTKENRQDECRFSPNKEATEEDLLRIGVECTKVNFDDEHVQEDLDRLIKKYDMNFHDEVHICRATMPNFDEKLDIFFEEHLHDDAELRVIKHGVGFFDVRTKDEAWIRIPVRRGDFVFLPAGIYHRFTTDPSEDVVALRLFRNNPKWTAFNRKADGDEQRVRQQYLNDISA
MSLLILIGWQIQVRQPSDYIMNKTEFYADLNRDFNALMAGETSFLATLANTSALLYERLTDINWAGFYLLEDDTLVLGPFQGKIACVRIPVGRGVCGTAVARNQVQRIEDVHVFDGHIACDAASNSEIVLPLVVKNQIIGVLDIDSTVFGRFTDEDEQGLRQLVAQLEKVLATTDYKKFFASVAGEGGSHHHHHH
MGGLLFSSLQHCQQGFVISNELRQQQSELTSTWDLMLQTRINLSRSAARMMMDASNQQSSAKTDLLQNAKTTLAQAAAHYANFKNMTPLPAMAEASANVDEKYQRYQAALAELIQFLDNGNMDAYFAQPTQGMQNALGEALGNYARVSENLYRQTFDQSAHDYR
